We go through three molecules from patent US20240075158A1 (JIANGSU HENGRUI PHARMACEUTICAL, published 2024).

Test [1] addresses human IL-4R overexpressed on glioblastoma cells (LN229-IL4R, U87-IL4R, U251-IL4R) (human) (UniProt P24394). The test can be described thus: flow cytometry, LN229-IL4R cells, 6.666667 ug/mL. For orientation: In flow cytometry, cells or beads pass a laser one at a time.
For test [2] the target is unchanged. The test can be described thus: flow cytometry, U251-IL4R cells, 0.740741 ug/mL.
Test [3] has the same target. The experiment in a line: flow cytometry, U251-IL4R cells, 0.082305 ug/mL.
Test [4] has the same target. The test can be described thus: flow cytometry, U251-IL4R cells, 0.027435 ug/mL.
The target is the same in test [5]. The experiment in a line: flow cytometry, LN229-IL4R cells, 0.082305 ug/mL.
For test [6] the target is unchanged. The test can be described thus: flow cytometry, LN229-IL4R cells, 0.246914 ug/mL.
The target is the same in test [7]. The test can be described thus: flow cytometry, LN229-IL4R cells, 0.740741 ug/mL.
Test [8] has the same target. The test can be described thus: flow cytometry, U87-IL4R cells, 6.666667 ug/mL.
Test [9] has the same target. The experiment in a line: flow cytometry, U87-IL4R cells, 2.222222 ug/mL.
Test [10] has the same target. The experiment in a line: flow cytometry, U87-IL4R cells, 20 ug/mL.
Test [11] has the same target. The test can be described thus: flow cytometry, U87-IL4R cells, 0.082305 ug/mL.
Test [12] shares this target. The experiment in a line: flow cytometry, U251-IL4R cells, 6.666667 ug/mL.
For test [13] the target is unchanged. The experiment in a line: flow cytometry, U87-IL4R cells, 0.740741 ug/mL.
Test [14] shares this target. The test can be described thus: flow cytometry, U251-IL4R cells, 2.222222 ug/mL.
The target is the same in test [15]. The experiment in a line: flow cytometry, LN229-IL4R cells, 0.027435 ug/mL.
Test [16] shares this target. The experiment in a line: flow cytometry, LN229-IL4R cells, 20 ug/mL.
For test [17] the target is unchanged. The experiment in a line: flow cytometry, LN229-IL4R cells, 2.222222 ug/mL.
Test [18] has the same target. The test can be described thus: cell-based or functional assay.
For test [19] the target is unchanged. The test can be described thus: flow cytometry, U251-IL4R cells, 0.246914 ug/mL.
The target in test [20] is rhIL-4R-Fc (ILR-H5253, Acro) (human) (UniProt P24394). The experiment in a line: SPR Biacore 8K, rhIL-4R-Fc captured by anti-human IgG on CM5, immunotoxin as analyte.
Test [21] has as its target human IL-4R overexpressed on glioblastoma cells (LN229-IL4R, U87-IL4R, U251-IL4R) (human) (UniProt P24394). The test can be described thus: flow cytometry, U87-IL4R cells, 0.246914 ug/mL.
Test [22] shares this target. The test can be described thus: flow cytometry, U87-IL4R cells, 0.027435 ug/mL.
For test [23] the target is unchanged. The test can be described thus: flow cytometry, U251-IL4R cells, 20 ug/mL.
The target in test [24] is T1, rhIL-4R-Fc (ILR-H5253, Acro) (human, UniProt P24394 26-232).
T1 sequence: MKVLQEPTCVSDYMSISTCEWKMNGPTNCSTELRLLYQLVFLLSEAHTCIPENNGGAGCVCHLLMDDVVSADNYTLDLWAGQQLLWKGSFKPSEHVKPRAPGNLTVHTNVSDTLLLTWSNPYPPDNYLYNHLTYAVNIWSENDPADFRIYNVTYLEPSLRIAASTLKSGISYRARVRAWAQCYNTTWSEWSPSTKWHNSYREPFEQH

In general, Kd refers to the free concentration of one partner at which half of the binding sites on the other are occupied at equilibrium, for simple one-to-one binding. A high value points to weaker binding. The koff is a measure of how fast the partners let go of each other. A word on the kon: it is a measure of how fast the partners come together. With MDNA55 (ligand), the Mean MFI in test [1] was found to be 21100 MFI; in test [2] it was 10700 MFI; in test [3] it was 5860 MFI; in [4], 3180 MFI; in test [5], 8310 MFI; in [6], 12400 MFI. In addition, the Mean MFI amounted to 16200 MFI in test [7]; 29700 MFI in test [8]; 25300 MFI in [9]; 32700 MFI in test [10]; 12000 MFI in test [11]; 17500 MFI in test [12]. For the same molecule, the Mean MFI in [13] amounted to 21600 MFI; in test [14], 13700 MFI; in [15] it was 4470 MFI; in test [16], 24300 MFI; in test [17], 19400 MFI; in test [19], 8130 MFI. Further, the Mean MFI in test [21] was 17100 MFI; in test [22] it was 9120 MFI; in [23], 22600 MFI. The same molecule had an in vitro killing (CTG cell viability), LN229-IL4R cells in [18] of 80%. In addition, the Kd in test [20] worked out at 0.439 nM. The molecule further gave a dissociation rate constant (koff) in test [20] of 0.0029 s⁻¹. In test [20], this molecule had a kon of 6.62e+06 M⁻¹ s⁻¹.
In the case of hIgG1 isotype control (antibody), the Mean MFI in [1] stood at 244 MFI; in [2], 284 MFI; in test [3] it was 274 MFI; in test [4], 263 MFI; in [5] it was 318 MFI; in [6], 300 MFI. For the same molecule, the Mean MFI in test [7] is 286 MFI; in test [8], 306 MFI; in test [9], 334 MFI; in test [10], 318 MFI; in test [11] it was 394 MFI; in [12] it was 288 MFI. In addition, the Mean MFI in [13] is 339 MFI; in test [14] it was 282 MFI; in [15], 352 MFI; in test [16], 231 MFI; in [17], 361 MFI; in [19], 287 MFI. Also, the values for the Mean MFI in [21], in test [22] and in test [23] were 322 MFI, 588 MFI and 275 MFI, respectively.

B1: 25G7-(scdsFv)-PE38KDEL (scFv)
scFv: EVQLVESGGGLVQPGGSLRLSCAASGFTFSDYGMHWVRQAPGKCLEWVAFISSGSSIIYYADIVKGRSTISRDNAKNTLYLQMNSLRAEDTAVYYCTRGNKRGFFDYWGQGTLVTVSSGGGGSGGGGSGGGGSEIVLTQSPATLSLSPGERATLSCRASSSVPYMYWYQQKPGQAPRLLIYLTSNLASGIPARFSGSGSGTDFTLTISSLEPEDFAVYYCQQWRAYPPMLTFGCGTKVEIKASGGPEEGGSLAALTAHQACHLPLETFTRHRQPRGWEQLEQCGYPVQRLVALYLAARLSWNQVDQVIRNALASPGSGGDLGEAIREQPEQARLALTLAAAESERFVRQGTGNDEAGAANGPADSGDALLERNYPTGAEFLGDGGDVSFSTRGTQNWTVERLLQAHRQLEERGYVFVGYHGTFLEAAQSIVFGGVRARSQDLDAIWRGFYIAGDPALAYGYAQDQEPDARGRIRNGALLRVYVPRSSLPGFYRTSLTLAAPEAAGEVERLIGHPLPLRLDAITGPEEEGGRLETILGWPLAERTVVIPSAIPTDPRNVGGDLDPSSIPDKEQAISALPDYASQPGKPPKDEL
In [24], B1 displayed a Kd of 0.101 nM, a koff of 0.000279 s⁻¹ and an on-rate (kon) of 2.77e+06 M⁻¹ s⁻¹.
